Laboratory results reported in IntAct's records for PubMed 22596162.

B1: E3 ubiquitin-protein ligase RLIM (Mus musculus), Q9WTV7 (parent)
chain: MENSDSNDKGSDQSAAQRRSQMDRLDREEAFYQFVNNLSEEDYRLMRDNNLLGTPGESTEEELLRRLQQIKEGPPPQSPDENRAGESSDDVTNSDSIIDWLNSVRQTGNTTRSGQRGNQSWRAVSRTNPNSGDFRFSLEINVNRNNGSQTSENESEPSTRRLSVENMESSSQRQMENSASESASARPSRAERNSAEAVTEVPTTRAQRRARSRSPEHRRTRARAERSRSPLQPTSEIPRRAPTLEQSSENEPEGSSRTRHHVTLRQQISGPELLGRGLFAASGSRNPSQGTSSSDTGSNSESSGSGQRPPTIVLDLQVRRVRPGEYRQRDSIASRTRSRSQAPNNTVTYESERGGFRRTFSRSERAGVRTYVSTIRIPIRRILNTGLSETTSVAIQTMLRQIMTGFGELSYFMYSDSDSEPSASVSSRNVERVESRNGRGSSGGGNSSGSSSSSSPSPSSSGESSESSSEMFEGSSEGGSSGPSRRDGRHRAPVTFDESGSLPFLSLAQFFLLNEDDEDQPRGLTKEQIDNLAMRSFGENDALKTCSVCITEYTEGNKLRKLPCSHEYHVHCIDRWLSENSTCPICRRAVLSSGNRESVV

Variants of: B1
Conditions: with zfp42_mouse Zfp42, P22227
zfp42_mouse Zfp42, P22227, sequence (P22227 whole entry): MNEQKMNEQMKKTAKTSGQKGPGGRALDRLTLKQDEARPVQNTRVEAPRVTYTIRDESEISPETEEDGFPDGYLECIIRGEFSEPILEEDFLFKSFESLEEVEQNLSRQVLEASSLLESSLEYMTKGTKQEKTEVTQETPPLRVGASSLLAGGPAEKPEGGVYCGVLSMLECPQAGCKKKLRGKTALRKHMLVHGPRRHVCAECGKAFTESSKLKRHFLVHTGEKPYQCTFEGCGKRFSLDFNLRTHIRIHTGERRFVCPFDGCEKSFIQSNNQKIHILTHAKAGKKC

| Variant | effect of a mutation on the interaction |
| --- | --- |
| H569A;C572A | with no effect |
